Patent US20210363261A1 (DRAGONFLY THERAPEUTICS, published 2021)
Residue numbers refer to the chain shown, from its start.

B1: corresponding monoclonal antibody having the same FAP binding site as FAP-multi-specific BP Sibrotuzumab (antibody, V domains shown)
VH: QVQLVQSGAEVKKPGASVKVSCKTSRYTFTEYTIHWVRQAPGQRLEWIGGINPNNGIPNYNQKFKGRVTITVDTSASTAYMELSSLRSEDTAVYYCARRRIAYGYDEGHAMDYWGQGTLVTVSS
VL: DIVMTQSPDSLAVSLGERATINCKSSQSLLYSRNQKNYLAWYQQKPGQPPKLLIFWASTRESGVPDRFSGSGFGTDFTLTISSLQAEDVAVYYCQQYFSYPLTFGQGTKVEIK
notes: also called FAP-mAb; anti-FAP mAb
B2: corresponding monoclonal antibody having the same FAP binding site as FAP-multi-specific BP 4G8 (antibody, V domains shown)
VH: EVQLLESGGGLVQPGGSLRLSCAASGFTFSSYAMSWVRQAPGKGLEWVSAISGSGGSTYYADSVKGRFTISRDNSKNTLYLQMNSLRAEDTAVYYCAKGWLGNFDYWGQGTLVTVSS
VL: EIVLTQSPGTLSLSPGERATLSCRASQSVSRSYLAWYQQKPGQAPRLLIIGASTRATGIPDRFSGSGSGTDFTLTISRLEPEDFAVYYCQQGQVIPPTFGQGTKVEIK
notes: as for B1
B3: corresponding monoclonal antibody having the same FAP binding site as FAP-multi-specific BP 29B11 (antibody, V domains shown)
VH: EVQLLESGGGLVQPGGSLRLSCAASGFTFSSYAMSWVRQAPGKGLEWVSAIIGSGGITYYADSVKGRFTISRDNSKNTLYLQMNSLRAEDTAVYYCAKGWFGGFNYWGQGTLVTVSS
VL: B2 VL with S30T, R31S, I50N, G51V, A52G, T54R, Q93I, V94M, I95L
notes: as for B1

Target: T1, fibroblast activation protein (FAP) expressed on human cell lines LL86, COLO 829 and U-87 MG (human, UniProt Q12884 1-760)
T1 construct: the assays used endogenous FAP on human cell lines
Test: flow cytometry on LL86, COLO 829 and U-87 MG cells, anti-human IgG detection, MFI fold over background
Method: Multi-specific binding proteins or corresponding monoclonal antibodies (mAb) having the same FAP binding site were diluted and incubated with the cells. Binding was detected using fluorophore-conjugated anti-human IgG secondary antibody. Cells were analyzed by flow cytometry and express as mean fluorescence intensity (MFI) normalized to human recombinant IgG1 stained controls to obtain fold over background (FOB) values.

Binder | binding result
B1 | binds
B2 | binds
B3 | binds
